In the supplement of paper PMC11246515:
± gives the standard deviation of the averaged measurements.

Test: total protein half-life in vivo (active degradation + dilution); higher = more stable protein
[1] = E. coli NCM3722 delta-clpP, growth: N-lim chemostat, doubling time 6 h
[2] = E. coli NCM3722 delta-lon, growth: N-lim chemostat, doubling time 6 h
[3] = wild type E. coli NCM3722, growth: C-lim chemostat, doubling time 3 h
[4] = wild type E. coli NCM3722, growth: C-lim chemostat, doubling time 12 h
[5] = wild type E. coli NCM3722, growth: N-lim chemostat, doubling time 12 h
[6] = wild type E. coli NCM3722, growth: P-lim chemostat, doubling time 12 h
[7] = E. coli NCM3722 delta-clpP delta-lon delta-hslV, growth: N-lim chemostat, doubling time 6 h
[8] = E. coli NCM3722 delta-hslV, growth: N-lim chemostat, doubling time 6 h
[9] = E. coli NCM3722 delta-smpB, growth: N-lim chemostat, doubling time 6 h
[10] = wild type E. coli NCM3722, growth: C-lim chemostat, doubling time 6 h
[11] = wild type E. coli NCM3722, growth: N-lim chemostat, doubling time 6 h
[12] = wild type E. coli NCM3722, growth: P-lim chemostat, doubling time 6 h

## MEGWQRAFVLHSRPWSETSLMLDVFTEESGRVRLVAKGARSKRSTLKGALQPFTPLLLRFGGRGEVKTLRSAEAVSLALPLSGITLYSGLYINELLSRVLEYETRFSELFFDYLHCIQSLAGVTGTPEPALRRFELALLGHLGYGVNFTHCAGSGEPVDDTMTYRYREEKGFIASVVIDNKTFTGRQLKALNAREFPDADTLRAAKRFTRMALKPYLGGKPLKSRELFRQFMPKRTVKTHYE [P0A7H3]
[1]
  total protein half-life in vivo: 2.812 ± 0.027 h
[2]
  total protein half-life in vivo: > 8 h
[3]
  total protein half-life in vivo: 1.98 h
[4]
  total protein half-life in vivo: 2.57 h
[5]
  total protein half-life in vivo: 2.87 h
[6]
  total protein half-life in vivo: 4.34 h

## MEIFFTILIMTLVVSLSGVVTRVMPFQIPLPLMQIAIGALLAWPTFGLHVEFDPELFLVLFIPPLLFADGWKTPTREFLEHGREIFGLALALVVVTVVGIGFLIYWVVPGIPLIPAFALAAVLSPTDAVALSGIVGEGRIPKKIMGILQGEALMNDASGLVSLKFAVAVAMGTMIFTVGGATVEFMKVAIGGILAGFVVSWLYGRSLRFLSRWGGDEPATQIVLLFLLPFASYLIAEHIGVSGILAAVAAGMTITRSGVMRRAPLAMRLRANSTWAMLEFVFNGMVFLLLGLQLPGILETSLMAAEIDPNVEIWMLFTNIILIYAALMLVRFGWLWTMKKFSNRFLKKKPMEFGSWTTREILIASFAGVRGAITLAGVLSIPLLLPDGNVFPARYELVFLAAGVILFSLFVGVVMLPILLQHIEVADHSQQLKEERIARAATAEVAIVAIQKMEERLAADTEENIDNQLLTEVSSRVIGNLRRRADGRNDVESSVQEENLERRFRLAALRSERAELYHLRATREISNETLQKLLHDLDLLEALLIEENQ
[7]
  total protein half-life in vivo: 6.08 ± 0.45 h
[8]
  total protein half-life in vivo: 6.29 ± 0.48 h
[2]
  total protein half-life in vivo: 5.55 ± 0.11 h
[9]
  total protein half-life in vivo: 5.17 ± 1.3 h
[10]
  total protein half-life in vivo: 5.6 ± 0.69 h
[4]
  total protein half-life in vivo: 11.9 ± 0.93 h
[11]
  total protein half-life in vivo: 5.74 ± 0.28 h
[5]
  total protein half-life in vivo: 10.9 ± 0.26 h
[12]
  total protein half-life in vivo: 6.31 ± 0.26 h
[6]
  total protein half-life in vivo: 11.4 ± 0.66 h

## MEIREGHNKFYINDKQGKQIAEIVFVPTGENLAIIEHTDVDESLKGQGIGKQLVAKVVEKMRREKRKIIPLCPFAKHEFDKTREYDDIRS
[5]
  total protein half-life in vivo: > 16 h
[6]
  total protein half-life in vivo: 12 h

## MEITEPRRLYQQLAADLKERIEQGVYLVGDKLPAERFIADEKNVSRTVVREAIIMLEVEGYVEVRKGSGIHVVSNQPRHQQAADNNMEFANYGPFELLQARQLIESNIAEFAATQVTKQDIMKLMAIQEQARGEQCFRDSEWDLQFHIQVALATQNSALAAIVEKMWTQRSHNPYWKKLHEHIDSRTVDNWCDDHDQILKALIRKDPHAAKLAMWQHLENTKIMLFNETSDDFEFNADRYLFAENPVVHLDTATSGSK [P0ACL2]
[7]
  total protein half-life in vivo: 5.59 ± 0.086 h
[1]
  total protein half-life in vivo: 4.22 ± 0.52 h
[8]
  total protein half-life in vivo: 1.94 ± 0.086 h
[2]
  total protein half-life in vivo: 2.4 ± 0.26 h
[9]
  total protein half-life in vivo: 2.12 ± 0.16 h
[3]
  total protein half-life in vivo: 1.97 ± 0.099 h
[10]
  total protein half-life in vivo: 3.7 ± 0.26 h
[4]
  total protein half-life in vivo: 5.16 ± 0.083 h
[11]
  total protein half-life in vivo: 1.97 ± 0.043 h
[5]
  total protein half-life in vivo: 2.59 ± 0.37 h
[12]
  total protein half-life in vivo: 2.99 ± 0.29 h
[6]
  total protein half-life in vivo: 4.91 ± 0.27 h

## MEKKLPRIKALLTPGEVAKRSGVAVSALHFYESKGLITSIRNSGNQRRYKRDVLRYVAIIKIAQRIGIPLATIGEAFGVLPEGHTLSAKEWKQLSSQWREELDRRIHTLVALRDELDGCIGCGCLSRSDCPLRNPGDRLGEEGTGARLLEDEQN [P0ACS2]
[7]
  total protein half-life in vivo: 4.33 ± 0.31 h
[1]
  total protein half-life in vivo: 1.34 h
[2]
  total protein half-life in vivo: 2.45 h
[9]
  total protein half-life in vivo: 1.49 h
[10]
  total protein half-life in vivo: 2.35 h
[4]
  total protein half-life in vivo: 3.19 ± 0.38 h
[11]
  total protein half-life in vivo: 1.33 h

## MEKRTPHTRLSQVKKLVNAGQVRTTRSALLNADELGLDFDGMCNVIIGLSESDFYKSMTTYSDHTIWQDVYRPRLVTGQVYLKITVIHDVLIVSFKEK
[7]
  total protein half-life in vivo: 5.29 h
[9]
  total protein half-life in vivo: 5 h
[3]
  total protein half-life in vivo: 3.12 h
[6]
  total protein half-life in vivo: 13.2 ± 0.69 h

## MEKVMLSFDKVSAHYGKIQALHEVSLHINQGEIVTLIGANGAGKTTLLGTLCGDPRATSGRIVFDDKDITDWQTAKIMREAVAIVPEGRRVFSRMTVEENLAMGGFFAERDQFQERIKWVYELFPRLHERRIQRAGTMSGGEQQMLAIGRALMSNPRLLLLDEPSLGLAPIIIQQIFDTIEQLREQGMTIFLVEQNANQALKLADRGYVLENGHVVLSDTGDALLANEAVRSAYLGG
[7]
  total protein half-life in vivo: 5.87 ± 0.53 h
[1]
  total protein half-life in vivo: 6.13 ± 0.64 h
[8]
  total protein half-life in vivo: 5.66 ± 0.54 h
[2]
  total protein half-life in vivo: 6.44 ± 0.9 h
[9]
  total protein half-life in vivo: 5.58 ± 0.61 h
[3]
  total protein half-life in vivo: 3.07 ± 0.055 h
[10]
  total protein half-life in vivo: 5.86 ± 0.22 h
[4]
  total protein half-life in vivo: 12.4 ± 0.52 h
[11]
  total protein half-life in vivo: 5.51 ± 0.47 h
[5]
  total protein half-life in vivo: 10.1 ± 1.1 h
[12]
  total protein half-life in vivo: 5.94 ± 0.59 h
[6]
  total protein half-life in vivo: 13.5 ± 0.69 h

## MELHCPQCQHVLDQDNGHARCRSCGEFIEMKALCPDCHQPLQVLKACGAVDYFCQHGHGLISKKRVEFVLA
[7]
  total protein half-life in vivo: 5.52 ± 2.3 h
[1]
  total protein half-life in vivo: 4.63 h
[4]
  total protein half-life in vivo: 4.37 h
[11]
  total protein half-life in vivo: 6.43 h
[5]
  total protein half-life in vivo: 5.69 h
[6]
  total protein half-life in vivo: > 16 h

## MELLSEYGLFLAKIVTVVLAIAAIAAIIVNVAQRNKRQRGELRVNNLSEQYKEMKEELAAALMDSHQQKQWHKAQKKKHKQEAKAAKAKAKLGEVATDSKPRVWVLDFKGSMDAHEVNSLREEITAVLAAFKPQDQVVLRLESPGGMVHGYGLAASQLQRLRDKNIPLTVTVDKVAASGGYMMACVADKIVSAPFAIVGSIGVVAQMPNFNRFLKSKDIDIELHTAGQYKRTLTLLGENTEEGREKFREELNETHQLFKDFVKRMRPSLDIEQVATGEHWYGQQAVEKGLVDEINTSDEVILSLMEGREVVNVRYMQRKRLIDRFTGSAAESADRLLLRWWQRGQKPLM [P0AG14]
[7]
  total protein half-life in vivo: 6.52 ± 0.91 h
[1]
  total protein half-life in vivo: 6.18 ± 0.14 h
[8]
  total protein half-life in vivo: 5.91 ± 0.15 h
[2]
  total protein half-life in vivo: 6.12 ± 0.27 h
[9]
  total protein half-life in vivo: 6.07 ± 0.87 h
[3]
  total protein half-life in vivo: 3.11 ± 0.099 h
[4]
  total protein half-life in vivo: 11.3 ± 0.26 h
[11]
  total protein half-life in vivo: 6.076 ± 0.021 h
[5]
  total protein half-life in vivo: 14.1 ± 1.8 h
[12]
  total protein half-life in vivo: 5.6 ± 0.61 h
[6]
  total protein half-life in vivo: 11.4 ± 1.4 h
